Data published in patent publication US20090269810.
Where a chain is given by its changes, count along the chain named.

B1: wild-type human ERp23 (protein)
chain: DRAPLTATAPQLDDEEMYSAHMPAHLRCDACRAVAYQMWQNLAKAETKLHTSNSGGRRELSELVYTDVLDRSCSRNWQDYGVREVDQVKRLTGPGLSEGPEPSISVMVTGGPWPTRLSRTCLHYLGEFGEDQIYEAHQQGRGALEALLCGGPQGACSEKVSATREEL
B2: human ERp23 Cys95Ser mutant (protein)
chain: B1 chain with C73S
B3: human ERp23 Cys178Ser mutant (protein)
chain: B1 chain with C156S
B4: human ERp23 Cys50Ser mutant (protein)
chain: B1 chain with C28S
B5: human ERp23 Cys171Ser mutant (protein)
chain: B1 chain with C149S
B6: human ERp23 Cys53Ser mutant (protein)
chain: B1 chain with C31S
B7: human ERp23 Cys50-178Ser mutant (protein)
chain: B1 chain with C28S, C156S
B8: human ERp23 Cys143Ser mutant (protein)
chain: B1 chain with C121S

Biological target: HA-tagged mini HC (VH-CH1)

Row | Protein | oxidation of the CH1 domain of the mini HC | percentage of the fully oxidized form of the mini HC
1 | B1 | co-expression of wild-type human ERp23 resulted in oxidation of the CH1 domain in a portion of the HC even in the absence of LC | fully oxidizes ˜24% of the mini HC
2 | B2 | All of the remaining single cysteine mutants had significantly reduced activity, which in most cases was similar to that observed when no ERp23 was co-expressed | –
3 | B3 | also showed some activity, although it was slightly weaker than that observed with wild-type ERp23 or the Cys50Ser mutant | –
4 | B4 | – | showed a similar ability to oxidize the CH1 domain (i.e., 20%)
5 | B5 | All of the remaining single cysteine mutants had significantly reduced activity, which in most cases was similar to that observed when no ERp23 was co-expressed | –
6 | B6 | All of the remaining single cysteine mutants had significantly reduced activity, which in most cases was similar to that observed when no ERp23 was co-expressed | –
7 | B7 | only the Cys50-178Ser mutant still retained activity | –
8 | B8 | All of the remaining single cysteine mutants had significantly reduced activity, which in most cases was similar to that observed when no ERp23 was co-expressed | –
